# Assay results as given in paper PMC5431095.
# Legend:
# [1] = fluorescence microscopy, NuMA volume at spindle poles; details: control: DMSO
# [2] = Galectin-3 over NuMA fluorescence intensity; details: glycan lost; control: wt NuMA-GFP in NuMA-depleted HeLa
# [3] = confocal microscopy of metaphase cells; details: glycan lost; control: wt NuMA-GFP in NuMA-depleted HeLa
substance,measurement,setting,value
NuMA (Nuclear Mitotic Apparatus protein): Ac-5SGlcNAc,localisation_or_trafficking,[1]; glycan lost,changes
NuMA (Nuclear Mitotic Apparatus protein): GalNAcα-O-benzyl,localisation_or_trafficking,[1]; glycan lost,no change
NuMA (Nuclear Mitotic Apparatus protein): S1844A,other: Galectin-3 recruitment to spindle poles,[2],decreases
same,localisation_or_trafficking,[3],changes
NuMA (Nuclear Mitotic Apparatus protein): swainsonine,localisation_or_trafficking,[1]; glycan changed form,no change
